Assay results published in patent US20020115110A1 (GlaxoSmithKline, published 2002).

T1: TR1Fc (human, UniProt O00300 22-401, limits assumed)
T1 construct: also called TR1 Fc fusion protein; TR1 (osteoprotegerin, OPG) fused to hinge-CH2-CH3 of human IgG1
T1 sequence: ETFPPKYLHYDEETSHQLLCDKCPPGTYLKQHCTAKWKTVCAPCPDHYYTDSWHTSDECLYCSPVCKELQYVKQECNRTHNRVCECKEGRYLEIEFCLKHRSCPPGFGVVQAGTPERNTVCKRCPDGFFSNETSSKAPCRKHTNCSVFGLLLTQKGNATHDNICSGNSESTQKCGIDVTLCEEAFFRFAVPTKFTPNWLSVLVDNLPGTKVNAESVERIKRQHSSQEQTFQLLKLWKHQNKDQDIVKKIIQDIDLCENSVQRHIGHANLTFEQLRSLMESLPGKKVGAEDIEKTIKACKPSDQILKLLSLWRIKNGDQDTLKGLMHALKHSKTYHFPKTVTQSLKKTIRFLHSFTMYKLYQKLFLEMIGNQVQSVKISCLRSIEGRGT


Tests used:
TR1Fc = target: T1, TR1Fc; test: SPR (BIAcore 2000), Fc fusion captured on immobilized protein A, ligand injected
Experimental: (§1) Surface plasmon resonance. Protein A was immobilized on to a research grade carboxymethyldextran chip (CM5) using amin coupling procedures described previously (4). Flow cell 1 was activated with NHS/EDC for 5 min. Protein A was injected a a concentration of 1 ug/ml in NaOAc buffer (10 mM, pH 5.0) until 1000RUs of protein were coupled. Remaining activated groups were blocked with a 7 min injection of 1M ethanolamine. A control surface was created by repeating the coupling procedure in a flow cell2 without incorporating protein A. In a BIAcore 2000 biosensor (BIAcore Inc. Uppsala, Sweden) TR1Fc or TR2Fc were then injected at a flow rate of 100 ul/min followed by injection of TL2 or TL4, and the binding to receptor monitored by chances in surface plasmon resonance relative to the control chip. In these experiments, TR1Fc bound to TL2 but not TL4 and TR2Fc bound to TL4 but not TL2.

sTL2 = target: T2, sTL2 (Homo sapiens (Human), UniProt P50591 97-281); test: as above
T2 construct: also called soluble TL2; TRAIL
T2 sequence (P50591 97-281): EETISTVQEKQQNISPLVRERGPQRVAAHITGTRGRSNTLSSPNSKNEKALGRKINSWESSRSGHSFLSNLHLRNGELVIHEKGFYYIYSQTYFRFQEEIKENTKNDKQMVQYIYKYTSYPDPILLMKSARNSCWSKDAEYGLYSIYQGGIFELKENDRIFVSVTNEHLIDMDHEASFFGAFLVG
Experimental: as §1

Row | Binder | binding result (TR1Fc) | binding result (sTL2)
1 | sTL4 (ligand, not shown: small tags and cut ends, also called soluble TL4) HHHHHHSDDDDKQERRSHEVNPAAHLTGANSSLTGSGGPLLWETQLGLAFLRGLSYHDGALVVTKAGYYYIYSKVQLGGVGCPLGLASTITHGLYKRTPRYPEELELLVSQQSPCGRATSSSRVWWDSSFLGGVVHLEAGEKVVVRVLDERLVRLRDGTRSYFGAFMV | no binding | –
2 | TR2Fc (Fc fusion, not shown: a dimerising Fc or GST, Secreted from mammalian cells as a dimer and purified on protein A. Residues 1-192 include the putative leader peptide, which is removed on secretion; also called TR2 (HVEM) extracellular domain fused to hinge-CH2-CH3 of human IgG1; product of plasmid TR2Fclink) LPFCKEDEYPVGSECCPKCSPGYRVKEACGELTGTVCEPCPPGTYIAHLNGLSKCLQCQMCDPAMGLRASRNCSRTENAVCGCSPGHFCIVQDGDHCAACRAYATSSPGQRVQKGGTESQDTLCQNCPPGTFSPNGTLEECQHQTKCSWLVTKARSIEGRGT | – | no binding
